Like-named read-outs stand apart in the source and are kept apart here.
What was measured:
TNF activity = test: Induction of TNF activity by mixed culture of monocytes and PICIBANIL (OK-432) plus CSF; cytocidal activity against L929 cells (crystal violet); assay type: cell-based; settings: conclusions from Table 2
Experimental: (3) Incubation was performed at 37° C. for 72 hours in a 5% CO2 atmosphere.
(4) The supernatant was assayed for TNF activity at timed intervals. The TNF activity was determined by measuring the cytocidal activity against L929 cells in terms of the absorbance of crystal violet.

mouse marrow cells [1] = test: Colony stimulating activity: colony formation of mouse marrow cells on soft agar; assay type: cell-based; settings: for specific activity: purified glycoprotein/CSF of the examples
Experimental: In biological activity measurement, the colony formation of mouse marrow cells in vitro was used as an activity measurement parameter. […] Thereafter, cell aggregates consisting of 50 or more cells were counted as colonies under an invert microscope.
One colony formed is taken as one unit.
Thus, the CSF sample was admixed with 1 ml of McCoy's 5A medium containing 0.3% agar, 20% fetal calf serum (FCS) and 1×10^5 mouse marrow cells. […] Thereafter, cell aggregates consisting of 50 or more cells were judged as colonies and counted. The colony stimulating activity was expressed in units. One unit was defined as the quantity of CSF required for the formation of one colony. The specific activity was expressed in terms of the number of colonies (units) formed per milligram of the CSF protein. […] The colonies formed were stained with hematoxylin-eosin for morphological classification.

[2] = Thermal stability of the CSF (60°C, then colony stimulating activity); assay type: physicochemical; settings: 1 μg/ml, dilute buffer pH 7.0, 60°±0.5° C., 60 minutes
Experimental: The CSF was dissolved in a dilute buffer (pH 7.0) to a concentration of 1 μg/ml, and the solution was heated at 60°±0.5° C. for 60 minutes and then assayed for colony stimulating activity (to be mentioned later herein).

Isoelectric point = assay type: physicochemical; settings: polyacrylamide gel isoelectric focusing and sucrose density gradient isoelectric focusing
Description: The isoelectric point (pI) as determined by the polyacrylamide gel isoelectric focusing and sucrose density gradient isoelectric focusing techniques is 3.1-3.7.

[3] = cited from earlier work
[4] = 1% (by weight) aqueous solution; cited from earlier work
[5] = 1% (by weight) aqueous solution, 60° C. ±0.5° C., 30 minutes; cited from earlier work
human marrow cells = settings: cited from earlier work
marrow cells = settings: cited from earlier work
[6] = 60±0.5° C., 60 minutes; CSF (iv); cited from earlier work
[7] = test system: mammalian monocyte-macrophage series cells; settings: cited from earlier work
mouse marrow cells [8] = settings: CSF (iv), typical production method; cited from earlier work
[9] = polyacrylamide gel isoelectric focusing and sucrose density gradient isoelectric focusing; CSF (iv); cited from earlier work

B1: Example 4: human urine-derived CSF isolated and purified in the same manner as in Example 3 with TSKG-3,000SW and phenyl-5pw (protein, UniProt P09603 33-554, looked up)
Macrophage colony-stimulating …: EEVSEYCSHMIGSGHLQSLQRLIDSQMETSCQITFEFVDQEQLKDPVCYLKKAFLLVQDIMEDTMRFRDNTPNAIAIVQLQELSLRLKSCFTKDYEEHDKACVRTFYETPLQLLEKVKNVFNETKNLLDKDWNIFSKNCNNSFAECSSQDVVTKPDCNCLYPKAIPSSDPASVSPHQPLAPSMAPVAGLTWEDSEGTEGSSLLPGEQPLHTVDPGSAKQRPPRSTCQSFEPPETPVVKDSTIGGSPQPRPSVGAFNPGMEDILDSAMGTNWVPEEASGEASEIPVPQGTELSPSRPGGGSMQTEPARPSNFLSASSPLPASAKGQQPADVTGTALPRVGPVRPTGQDWNHTPQKTDHPSALLRDPPEPGSPRISSLRPQGLSNPSTLSAQPQLSRSHSSGSVLPLGELEGRRSTRDRRSPAEPEGGPASEGAARPLPRFNSVPLTDTGHERQSEGSFSPQLQESVFHLLVPSVILVLLAVGGLLFYRWRRRSHQEPQRADSPLEQPEGSPLTQDDRQVELPV
With B1 as the molecule, how does the “TNF activity (in words)” value (TNF activity) read?
The value was “does not cause TNF activity expression”.

What about the specific activity (mouse marrow cells [1]) of the same molecule?
Its specific activity is 1.5×10^8 units/mg protein.

B2: 2: heat-treated glycoprotein (CSF) from fresh urine collected from healthy humans (protein, UniProt P09603 33-554, looked up)
Macrophage colony-stimulating …: EEVSEYCSHMIGSGHLQSLQRLIDSQMETSCQITFEFVDQEQLKDPVCYLKKAFLLVQDIMEDTMRFRDNTPNAIAIVQLQELSLRLKSCFTKDYEEHDKACVRTFYETPLQLLEKVKNVFNETKNLLDKDWNIFSKNCNNSFAECSSQDVVTKPDCNCLYPKAIPSSDPASVSPHQPLAPSMAPVAGLTWEDSEGTEGSSLLPGEQPLHTVDPGSAKQRPPRSTCQSFEPPETPVVKDSTIGGSPQPRPSVGAFNPGMEDILDSAMGTNWVPEEASGEASEIPVPQGTELSPSRPGGGSMQTEPARPSNFLSASSPLPASAKGQQPADVTGTALPRVGPVRPTGQDWNHTPQKTDHPSALLRDPPEPGSPRISSLRPQGLSNPSTLSAQPQLSRSHSSGSVLPLGELEGRRSTRDRRSPAEPEGGPASEGAARPLPRFNSVPLTDTGHERQSEGSFSPQLQESVFHLLVPSVILVLLAVGGLLFYRWRRRSHQEPQRADSPLEQPEGSPLTQDDRQVELPV
modifications: heat-treated
notes: heat-treated glycoprotein (CSF) from fresh urine collected from healthy humans
With B2 as the molecule, how does the specific activity (mouse marrow cells [1]) read?
Its specific activity is 1×10^7 units/mg protein.

B3: Example 3: purified CSF from human urine, homodimer of 70,000-90,000 daltons (protein, UniProt P09603 33-554, looked up)
Macrophage colony-stimulating …: EEVSEYCSHMIGSGHLQSLQRLIDSQMETSCQITFEFVDQEQLKDPVCYLKKAFLLVQDIMEDTMRFRDNTPNAIAIVQLQELSLRLKSCFTKDYEEHDKACVRTFYETPLQLLEKVKNVFNETKNLLDKDWNIFSKNCNNSFAECSSQDVVTKPDCNCLYPKAIPSSDPASVSPHQPLAPSMAPVAGLTWEDSEGTEGSSLLPGEQPLHTVDPGSAKQRPPRSTCQSFEPPETPVVKDSTIGGSPQPRPSVGAFNPGMEDILDSAMGTNWVPEEASGEASEIPVPQGTELSPSRPGGGSMQTEPARPSNFLSASSPLPASAKGQQPADVTGTALPRVGPVRPTGQDWNHTPQKTDHPSALLRDPPEPGSPRISSLRPQGLSNPSTLSAQPQLSRSHSSGSVLPLGELEGRRSTRDRRSPAEPEGGPASEGAARPLPRFNSVPLTDTGHERQSEGSFSPQLQESVFHLLVPSVILVLLAVGGLLFYRWRRRSHQEPQRADSPLEQPEGSPLTQDDRQVELPV
Which “Thermal stability (colony stimulating activity decrease)” value [2] does the source give for B3 here?
The value was “Almost no activity decrease was observed”.

What about the “proportion of colonies that were monocyte-macrophage colonies” value (mouse marrow cells [1]; hematoxylin-eosin staining, 7 days at 37° C.) of the same molecule?
The value was “at least 95%”.

And the specific activity (mouse marrow cells [1])?
Its specific activity is 1.4×10^8 units/mg protein.

And the “isoelectric point (pI)” value (Isoelectric point)?
Its value is 3.1-3.7.

B4: CSF (i): CSF disclosed in U.S. Pat. No. 4,275,056; glycoprotein, molecular weight 75,000-90,000 by gel filtration (protein, UniProt P09603 33-554, looked up)
Macrophage colony-stimulating …: EEVSEYCSHMIGSGHLQSLQRLIDSQMETSCQITFEFVDQEQLKDPVCYLKKAFLLVQDIMEDTMRFRDNTPNAIAIVQLQELSLRLKSCFTKDYEEHDKACVRTFYETPLQLLEKVKNVFNETKNLLDKDWNIFSKNCNNSFAECSSQDVVTKPDCNCLYPKAIPSSDPASVSPHQPLAPSMAPVAGLTWEDSEGTEGSSLLPGEQPLHTVDPGSAKQRPPRSTCQSFEPPETPVVKDSTIGGSPQPRPSVGAFNPGMEDILDSAMGTNWVPEEASGEASEIPVPQGTELSPSRPGGGSMQTEPARPSNFLSASSPLPASAKGQQPADVTGTALPRVGPVRPTGQDWNHTPQKTDHPSALLRDPPEPGSPRISSLRPQGLSNPSTLSAQPQLSRSHSSGSVLPLGELEGRRSTRDRRSPAEPEGGPASEGAARPLPRFNSVPLTDTGHERQSEGSFSPQLQESVFHLLVPSVILVLLAVGGLLFYRWRRRSHQEPQRADSPLEQPEGSPLTQDDRQVELPV
Which Solubility in chloroform ([3]; chloroform) does the source give for B4 here?
The Solubility in chloroform was “slightly soluble”.

And the “Solubility in ethyl alcohol and acetone” value ([3]; ethyl alcohol and acetone)?
Its value is “insoluble”.

What about the Solubility in water ([3]; water) of the same molecule?
The Solubility in water was “soluble”.

What about the pH [4] of the same molecule?
Its pH is 5.0-6.0.

What about the Temperature stability [5] of the same molecule?
Its Temperature stability is “loses its ability to promote the differentiation and proliferation of human granulocytes”.

What about the “differentiation and proliferation of granulocytes” value (human marrow cells) of the same molecule?
The value was “promotes the differentiation and proliferation of granulocytes”.

B5: CSF (ii): CSF disclosed in JP-A-63-54398; glycoprotein, molecular weight about 70,000 by gel filtration (protein, UniProt P09603 33-554, looked up)
Macrophage colony-stimulating …: EEVSEYCSHMIGSGHLQSLQRLIDSQMETSCQITFEFVDQEQLKDPVCYLKKAFLLVQDIMEDTMRFRDNTPNAIAIVQLQELSLRLKSCFTKDYEEHDKACVRTFYETPLQLLEKVKNVFNETKNLLDKDWNIFSKNCNNSFAECSSQDVVTKPDCNCLYPKAIPSSDPASVSPHQPLAPSMAPVAGLTWEDSEGTEGSSLLPGEQPLHTVDPGSAKQRPPRSTCQSFEPPETPVVKDSTIGGSPQPRPSVGAFNPGMEDILDSAMGTNWVPEEASGEASEIPVPQGTELSPSRPGGGSMQTEPARPSNFLSASSPLPASAKGQQPADVTGTALPRVGPVRPTGQDWNHTPQKTDHPSALLRDPPEPGSPRISSLRPQGLSNPSTLSAQPQLSRSHSSGSVLPLGELEGRRSTRDRRSPAEPEGGPASEGAARPLPRFNSVPLTDTGHERQSEGSFSPQLQESVFHLLVPSVILVLLAVGGLLFYRWRRRSHQEPQRADSPLEQPEGSPLTQDDRQVELPV
With B5 as the molecule, how does the “differentiation and proliferation of granulocytic series stem cells” value (marrow cells) read?
Its value is “promotes the differentiation and proliferation of granulocytic series stem cells”.

B6: CSF (iv): CSF disclosed in JP-A-63-250400; glycoprotein, homodimer composed of two identical subunits (protein, UniProt P09603 33-554, looked up)
Macrophage colony-stimulating …: EEVSEYCSHMIGSGHLQSLQRLIDSQMETSCQITFEFVDQEQLKDPVCYLKKAFLLVQDIMEDTMRFRDNTPNAIAIVQLQELSLRLKSCFTKDYEEHDKACVRTFYETPLQLLEKVKNVFNETKNLLDKDWNIFSKNCNNSFAECSSQDVVTKPDCNCLYPKAIPSSDPASVSPHQPLAPSMAPVAGLTWEDSEGTEGSSLLPGEQPLHTVDPGSAKQRPPRSTCQSFEPPETPVVKDSTIGGSPQPRPSVGAFNPGMEDILDSAMGTNWVPEEASGEASEIPVPQGTELSPSRPGGGSMQTEPARPSNFLSASSPLPASAKGQQPADVTGTALPRVGPVRPTGQDWNHTPQKTDHPSALLRDPPEPGSPRISSLRPQGLSNPSTLSAQPQLSRSHSSGSVLPLGELEGRRSTRDRRSPAEPEGGPASEGAARPLPRFNSVPLTDTGHERQSEGSFSPQLQESVFHLLVPSVILVLLAVGGLLFYRWRRRSHQEPQRADSPLEQPEGSPLTQDDRQVELPV
For B6, which “Thermal stability (biological activity)” value [6] is on record?
The value was “biological activity is not lost”.

And the colony stimulating activity [7]?
Its colony stimulating activity is “has colony stimulating activity”.

What about the specific activity (mouse marrow cells [8]) of the same molecule?
Its specific activity is 100,000-20,000,000 units/mg protein.

And the “isoelectric point (pI)” value [9]?
Its value is 3.1-3.7.

Reference: patent publication US5254534A, “Adjuvant for cancer immunotherapy” (Green Cross Corporation, priority 1988, dated 1993)
